Measured values from publication PMC5264606, “Clusterin: full-length protein and one of its chains show opposing effects on cellular lipid accumulation” (Scientific Reports, 2017).

B1: β-chain of human clusterin (β-Clu), recombinant (domain or fragment, UniProt P10909 228-449, looked up)
chain: SLMPFSPYEPLNFHAMFQPFLEMIHEAQQAMDIHFHSPAFQHPPTEFIREGDDDRTVCREIRHNSTGCLRMKDQCDKCREILSVDCSTNNPSQAKLRRELDESLQVAERLTRKYNELLKSYQWKMLNTSSLLEQLNEQFNWVSRLANLTQGEDQYYLRVTTVASHTSDSDVPSGVTEVVVKLFDSDPITVTVPVEVSRKNPKFMETVAEKALQEYRKKHREE
notes: The printed primers encode M-SLMPFSP... at the start and ...HREE-stop at the end; The NdeI site of the forward primer adds an initiator Met before S228; Not glycosylated (bacterial). cDNA came from IMR32 human neuroblastoma cells; also called β-clusterin
B2: α-chain of human clusterin (α-Clu), recombinant (domain or fragment, UniProt P10909 23-227, looked up)
chain: DQTVSDNELQEMSNQGSKYVNKEIQNAVNGVKQIKTLIEKTNEERKTLLSNLEEAKKKKEDALNETRESETKLKELPGVCNETMMALWEECKPCLKQTCMKFYARVCRSGSGLVGRQLEEFLNQSSPFYFWMNGDRIDSLLENDRQQTHMLDVMQDHFSRASSIIDELFQDRFFTREPQDTYHYLPFSLPHRRPHFFFPKSRIVR
notes: The printed primers encode M-DQTVSD... at the start and ...RIVR-stop at the end; Printed theoretical subunit mass: 24 kDa; The NdeI site of the forward primer adds an initiator Met before D23; Not glycosylated (bacterial). cDNA came from IMR32 human neuroblastoma cells; also called α-clusterin

Assays:
[1] = target: the molecule itself; test: dynamic light scattering; 1 mg/ml in PBS pH 7.4, filtered through 0.22 μm, 25 °C; hydrodynamic radius; self-association
[2] = target: the molecule itself; test: AUC; sedimentation velocity; 0.5 mg/ml in 20 mM phosphate buffer pH 7.4, 18,000 rpm, 20 °C, An50Ti rotor; SEDFIT (Lamm equation); self-association into large oligomers

Row | Protein | binding result [1] | stoichiometry N [2] [subunits per oligomer]
1 | B1 | binds | 
2 | B2 |  | ~60
